Results as given in publication PMC5095173, “Disulfide-activated protein kinase G Iα regulates cardiac diastolic relaxation and fine-tunes the Frank–Starling response” (Nature Communications, 2016).

B1: Acadvl pT513 (protein, UniProt P45953 41-655, looked up)
Very long-chain specific …: ASEATQAVLEKPETLSSDASTREKPARAESKSFAVGMFKGQLTTDQVFPYPSVLNEGQTQFLKELVGPVARFFEEVNDPAKNDSLEKVEEDTLQGLKELGAFGLQVPSELGGLGLSNTQYARLAEIVGMHDLGVSVTLGAHQSIGFKGILLYGTKAQKEKYLPRVASGQALAAFCLTEPSSGSDVASIRSSAVPSPCGKYYTLNGSKIWISNGGLADIFTVFAKTPIKDAATGAVKEKITAFVVERSFGGVTHGLPEKKMGIKASNTSEVYFDGVKVPAENVLGEVGDGFKVAVNILNNGRFGMAATLAGTMKAIIAKAVDHATNRTQFGDKIHNFGVIQEKLARMAILQYVTESMAYMLSANMDQGFKDFQIEAAISKIFGSEAAWKVTDECIQIMGGMGFMKEPGVERVLRDIRIFRIFEGTNDILRLFVALQGCMDKGKELTGLGNALKNPLGNVGLLIGEASKQLRRRTGIGSGLSLSGIVHPELSRSGELAVQALEQFATVVEAKLMKHKKGIVNEQFLLQRLADGAIDLYAMVVVLSRASRSLSEGYPTAQHEKMLCDSWCIEAATRIRENMASLQSNPQQQELFRNFRSISKAMVENGGLVTSNPLRV
modifications: phosphorylated at T513
B2: Hdlbp pS74 (protein, UniProt Q9Z1A6 2-1268, looked up)
Vigilin: SSVAVLTQESFAEHRSGLVPQQIIVATLNSEEESDPPTYKDAFPPLPEKAACLESAQEPAGAWSNKIRPIKASVITQVFHVPLEERKYKDMNQFGEGEQAKICLEIMQRTGAHLELSLAKDQGLSIMVSGKLDAVMKARKDIVARLQTQASATVPIPKEHHRFVIGKNGEKLQDLELKTATKIQIPRPDDPSNQIKITGTKEGIEKARHEVLLISAEQDKRAVKRLEVEKAFHPFIAGPYNRLVGEIMQETGTRINIPPPSVNRTEIVFTGEKEQLAQAVARIKKIYEEKKKKTTTIAVEVKKSQHKYVIGPKGNSLQEILERTGVSVEIPPSDSISETVILRGEPEKLGQALTEVYAKANSFTVSSVSAPSWLHRFIIGKKGQNLAKITHQMPKVHIEFTEGEDKITLEGPTEDVNVAQEQIEGMVKDLINRMDYVEINIDHKFHRHLIGKSGANINRIKDQYKVSVRIPPDSEKSNLIRIEGDPQGVQQAKRELLELASRMENERTKDLIIEQRFHRTIIGQKGERIREIRDKFPEVIINFPDPAQKSEIVQLRGPKNEVEKCTKYMQKMVADLVENSYSISVPIFKQFHKNIIGKGGANIKKIREESNTKIDLPAENSNSETIVITGKRANCEAARSRILSIQKDLANIAEVEVSIPAKLHNSLIGTKGRLIRSIMEECGGVHIHFPVEGSGSDTVVIRGPSSDVEKAKKQLLHLAEEKQTKSFTVDIRAKPEYHKFLIGKGGGKIRKVRDSTGARIIFPAAEDKDQDLITIIGKEDAVREAQKELEALIQNLDNVVEDYMLVDPRHHRHFVIRRGQVLREIAEEYGGVMVSFPRSGTQSDKVTLKGAKDCVEAAKKRIQEIIEDLEAQVTLECAIPQKFHRSVMGPKGSRIQQITRDYNVQIKFPDREENPVHSVEPSIQENGDEAGEGREAKETDPGSPRRCDIIVISGRKEKCEAAKEALEALVPVTIEVEVPFDLHRYIIGQKGSGIRKMMDEFEVNIHVPAPELQSHTIAITGLAANLDRAKAGLLDRVKELQAEQEDRALRSFKLSVTVDPKYHPKIIGGKGAVITQIRLEHDVNIQFPDKDDGNQPQDQITITGYEKNTEAARDAILKIVGELEQMVSEDVPLDHRVHARIIGARGKAIRKIMDEFKVDIRFPQSGAPDPNCVTVTGLPENVEEAIDHILNLEEEYLADVVDSEALQVYMKPPAHEESKAPSKGFVVRDAPWTSNSSEKAPDMSSSEEIPTFGAQVAPKTLPWGPKR
modifications: phosphorylated at S74
B3: Smpx pT40 (protein, UniProt Q925F0 1-85, looked up)
Small muscular protein: MSKQPISNVRSIQANINIPMGAFRPGAGQPPRRKESTPGTAEGAPATPEEKKPVPGMKKFPGPVVNLSEIQNVKSELKYVPKGEQ
modifications: phosphorylated at T40
B4: Hadhb pS198 (protein, UniProt Q60587 35-475, looked up)
Trifunctional enzyme subunit …: SAPAVQTKSKKTLAKPNLKNIVVVEGVRIPFLLSGTSYKDLMPHDLARAALSGLLYRTNIPKDVVDYIIFGTVIQEVKTSNVAREAALGAGFSDKTPAHTVTMACISSNQAMTTAVGLIASGQCDVVVAGGVELMSDVPIRHSRNMRKMMLDLNKAKTLAQRLSLLTKFRLNFLSPELPAVAEFSTNETMGHSADRLAAAFAVSRMEQDKYALRSHSLAKKAQDEGHLSDIVPFKVPGKDTVSKDNGIRPSSLEQMAKLKPAFIKPYGTVTAANSSFLTDGASAMLIMSEDRALAMGYKPKAYLRDFIYVSQDPKDQLLLGPTYATPKVLEKAGLTMNDIDAFEFHEAFSGQILANFKAMDSDWFAQNYMGRKTKVGAPPLEKFNIWGGSLSLGHPFGATGCRLVMAAANRLRKDGGQYALVAACAAGGQGHAMIVEAYPK
modifications: phosphorylated at S198
B5: Plcg1 pS1233 (protein, UniProt P10686 2-1290, looked up)
1-phosphatidylinositol …: AGVGTPCANGCGPSAPSEAEVLHLCRSLEVGTVMTLFYSKKSQRPERKTFQVKLETRQITWSRGADKIEGSIDIREIKEIRPGKTSRDFDRYQEDPAFRPDQSHCFVILYGMEFRLKTLSLQATSEDEVNMWIKGLTWLMEDTLQAATPLQIERWLRKQFYSVDRNREDRISAKDLKNMLSQVNYRVPNMRFLRERLTDFEQRSGDITYGQFAQLYRSLMYSAQKTMDLPFLETNTLRTGERPELCQVSLSEFQQFLLEYQGELWAVDRLQVQEFMLSFLRDPLREIEEPYFFLDELVTFLFSKENSVWNSQLDAVCPETMNNPLSHYWISSSHNTYLTGDQFSSESSLEAYARCLRMGCRCIELDCWDGPDGMPVIYHGHTLTTKIKFSDVLHTIKEHAFVASEYPVILSIEDHCSIAQQRNMAQHFRKVLGDTLLTKPVDIAADGLPSPNQLKRKILIKHKKLAEGSAYEEVPTSVMYSENDISNSIKNGILYLEDPVNHEWYPHYFVLTSSKIYYSEETSSDQGNEDEEEPKEASGSTELHSSEKWFHGKLGAGRDGRHIAERLLTEYCIETGAPDGSFLVRESETFVGDYTLSFWRNGKVQHCRIHSRQDAGTPKFFLTDNLVFDSLYDLITHYQQVPLRCNEFEMRLSEPVPQTNAHESKEWYHASLTRAQAEHMLMRVPRDGAFLVRKRNEPNSYAISFRAEGKIKHCRVQQEGQTVMLGNSEFDSLVDLISYYEKHPLYRKMKLRYPINEEALEKIGTAEPDYGALYEGRNPGFYVEANPMPTFKCAVKALFDYKAQREDELTFTKSAIIQNVEKQDGGWWRGDYGGKKQLWFPSNYVEEMINPAILEPEREHLDENSPLGDLLRGVLDVPACQIAIRPEGKNNRLFVFSISMPSVAQWSLDVAADSQEELQDWVKKIREVAQTADARLTEGKMMERRKKIALELSELVVYCRPVPFDEEKIGTERACYRDMSSFPETKAEKYVNKAKGKKFLQYNRLQLSRIYPKGQRLDSSNYDPLPMWICGSQLVALNFQTPDKPMQMNQALFMAGGHCGYVLQPSTMRDEAFDPFDKSSLRGLEPCVICIEVLGARHLPKNGRGIVCPFVEIEVAGAEYDSTKQKTEFVVDNGLNPVWPAKPFHFQISNPEFAFLRFVVYEEDMFSDQNFLAQATFPVKGLKTGYRAVPLKNNYSEDLELASLLIKIDIFPAKENGDLSPFSGTSLRERASDASSQLFHVRAREGSFEARYQQPFEDFRISQEHLADHFDSRERRAPRRTRVNGDNRL
modifications: phosphorylated at S1233

What was measured:
[1] = system: PKGIα (analogue-sensitive C42S/M438G), cGMP-activated; assay: Chemical genetic phosphoproteomic screen, cGMP-activated PKGIα C42S/M438G versus unactivated control; format: biochemical, human PKGIα; substrates in rat heart homogenate; conditions: for log2 fold changes: Group 1 (cGMP-activated) vs Group 3 (control)
Outline: (§1)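 Analogue-sensitive human PKGIα mutants (M438G, air-oxidized to disulfide dimer; C42S/M438G, cGMP-activated), expressed in 293-F cells, thiophosphorylate substrates in rat left-ventricle lysate (20 mg ml) using N6-alkylated ATPγS. Thiophosphopeptides are recovered by covalent capture and identified with sites by LC–MS/MS, each compared against an unactivated control.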

[2] = system: PKGIα (analogue-sensitive M438G), disulfide-activated; assay: Chemical genetic phosphoproteomic screen, disulfide-activated PKGIα M438G versus unactivated control; format: biochemical, human PKGIα; substrates in rat heart homogenate; conditions: for log2 fold changes: Group 2 (disulfide-activated) vs Group 3 (control)
Outline: as §1

| Molecule | log2 fold changes [1] | log2 fold changes [2] | log2 fold change cGMP vs Control ([1]; control = PKGIα C42S/M438G) | log2 fold change Disulfide vs Control ([2]; control = PKGIα C42S/M438G) |
| --- | --- | --- | --- | --- |
| B1 | 3.595 | -0.899 | – | – |
| B2 | 3.955 | 0.4352 | – | – |
| B3 | 0.3577 | 1.906 | – | – |
| B4 | 3.435 | 0.04396 | – | – |
| B5 | – | – | 4.5 | 1.819 |
